B1: MKP7 catalytic domain (MKP7-CD, residues 156-301) [human] / GST-JNK1 (wild type) [human] (parent complex)
chain 1: NIGPTRILPNLYLGCQRDVLNKELMQQNGIGYVLNASNTCPKPDFIPESHFLRVPVNDSFCEKILPWLDKSVDFIEKAKASNGCVLVHCLAGISRSATIAIAYIMKRMDMSLDEAYRFVKEKRPTISPNFNFLGQLLDYEKKIKNQ
chain 2: MSRSKRDNNFYSVEIGDSTFTVLKRYQNLKPIGSGAQGIVCAAYDAILERNVAIKKLSRPFQNQTHAKRAYRELVLMKCVNHKNIIGLLNVFTPQKSLEEFQDVYIVMELMDANLCQVIQMELDHERMSYLLYQMLCGIKHLHSAGIIHRDLKPSNIVVKSDCTLKILDFGLARTAGTSFMMTPYVVTRYYRAPEVILGMGYKENVDIWSVGCIMGEMIKGGVLFPGTDHIDQWNKVIEQLGTPCPEFMKKLQPTVRTYVENRPKYAGYSFEKLFPDVLFPADSEHNKLKASQARDLLSKMLVIDASKRISVDEALQHPYINVWYDPSEAEAPPPKIPDKQLDEREHTIEEWKELIYKEVMDLLE
B2: MKP5 catalytic domain (MKP5-CD, residues 320-467) [human] / GST-JNK1 (wild type) [human] (parent complex)
chain 1: AELTPILPFLFLGNEQDAQDLDTMQRLNIGYVINVTTHLPLYHYEKGLFNYKRLPATDSNKQNLRQYFEEAFEFIEEAHQCGKGLLIHCQAGVSRSATIVIAYLMKHTRMTMTDAYKFVKGKRPIISPNLNFMGQLLEFEEDLNNGVT
chain 2: B1 chain 2

The variants in one test derive from B1. Kind of test: GST pull-down; parent: 100; read off a plot.
In the case of chain 2 I231D, the percent of parent was ~37 % of wild-type JNK1.
With chain 2 T255A, the percent of parent is ~30 % of wild-type JNK1.
The same measure, in the same setting: the value for chain 2 I197D was ~88 % of wild-type JNK1; that for chain 2 D229A was ~5 % of wild-type JNK1.
Still for that read-out and setting: the value for chain 2 T228A was ~72 % of wild-type JNK1.
On the same count and under the same terms, the value for chain 2 H230D was ~96 % of wild-type JNK1.
For the variant chain 2 R263A, the percent of parent is ~73 % of wild-type JNK1.
On the same count and under the same terms, the value for chain 2 V260D was ~8 % of wild-type JNK1; that for chain 2 Q253A was ~92 % of wild-type JNK1.

The variants in a further test derive from B2. Kind of test: GST pull-down; parent: 100; read off a plot.
As to chain 2 I231D, the percent of parent was ~28 % of wild-type JNK1.
Same read-out and setting: with chain 2 T255A the figure was ~43 % of wild-type JNK1; with chain 2 H230D, ~98 % of wild-type JNK1; with chain 2 I197D, ~49 % of wild-type JNK1.
Regarding chain 2 R263A, the percent of parent was ~98 % of wild-type JNK1.
As to chain 2 Q253A, the percent of parent was ~67 % of wild-type JNK1.
Same read-out and setting: the value for chain 2 T228A was ~88 % of wild-type JNK1.

Source of the values: article PMC4802042 (2016).
